Earlier results on one substance are cited in paper PMC10218885.

Among the targets are Tyr118 (UniProt position 118, LSGDSYWVFVK); Tyr98 (UniProt position 98, EYTFDYQMTPT); Tyr42 (UniProt position 42, GNILQYNAAEG); Tyr76 (UniProt position 76, DSPEFYGKFKE); Tyr94 (UniProt position 94, NTMFEYTFDYQ).
Assay in all cases: NMR

The term pKa denotes the negative logarithm of the acid dissociation constant. Consider “Photoactive yellow protein (PYP) (Stated in the article as Halobacterium halobium; the PYP of the cited study is from Halorhodospira halophila (formerly Ectothiorhodospira halophila))”, for which the pKa is listed as 11.4–12.0 with Tyr118; 10.2–10.3 in the series with Tyr98; > 13 with Tyr42; 10.2–10.3 with Tyr76; > 13 with Tyr94.
